The target of experiment [1] is T1, human MerTK-his protein (human, UniProt Q12866 21-505).
T1 construct: extracellular domain; also called hMerTK-His; human MerTK protein
T1 sequence (looked up): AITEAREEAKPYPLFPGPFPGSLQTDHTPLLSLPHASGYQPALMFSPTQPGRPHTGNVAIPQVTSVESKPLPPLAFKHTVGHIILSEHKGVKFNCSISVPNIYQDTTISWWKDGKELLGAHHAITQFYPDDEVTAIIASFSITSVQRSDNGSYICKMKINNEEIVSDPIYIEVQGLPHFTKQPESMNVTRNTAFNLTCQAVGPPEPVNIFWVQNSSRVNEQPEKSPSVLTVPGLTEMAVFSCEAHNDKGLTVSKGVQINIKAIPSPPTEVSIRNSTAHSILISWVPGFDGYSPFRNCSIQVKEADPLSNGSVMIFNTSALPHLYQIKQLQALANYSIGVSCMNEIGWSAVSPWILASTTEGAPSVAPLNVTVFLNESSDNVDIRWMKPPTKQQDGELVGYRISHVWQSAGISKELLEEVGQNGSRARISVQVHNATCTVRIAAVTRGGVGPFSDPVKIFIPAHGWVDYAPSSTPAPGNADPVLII
Kind of experiment: SPR Biacore T200, antibody captured on Protein A chip. Here is the method: The binding affinity of the MerTK chimeric antibodies to human MerTK-his protein was tested with Biacroe™ T200 using a capture method. Briefly, the antibodies were captured with a Pro-A chip. […] The antigen was allowed to dissociate for 420-800 s. Data analysis was carried out using Biacore™ T200 evaluation software.

In experiment [2] the target is T2, Human MerTK-mouse Fc fusion protein (human, UniProt Q12866 21-499, limits assumed).
T2 construct: also called hMerTK; Human MerTK-mouse Fe fusion protein
T2 sequence (looked up): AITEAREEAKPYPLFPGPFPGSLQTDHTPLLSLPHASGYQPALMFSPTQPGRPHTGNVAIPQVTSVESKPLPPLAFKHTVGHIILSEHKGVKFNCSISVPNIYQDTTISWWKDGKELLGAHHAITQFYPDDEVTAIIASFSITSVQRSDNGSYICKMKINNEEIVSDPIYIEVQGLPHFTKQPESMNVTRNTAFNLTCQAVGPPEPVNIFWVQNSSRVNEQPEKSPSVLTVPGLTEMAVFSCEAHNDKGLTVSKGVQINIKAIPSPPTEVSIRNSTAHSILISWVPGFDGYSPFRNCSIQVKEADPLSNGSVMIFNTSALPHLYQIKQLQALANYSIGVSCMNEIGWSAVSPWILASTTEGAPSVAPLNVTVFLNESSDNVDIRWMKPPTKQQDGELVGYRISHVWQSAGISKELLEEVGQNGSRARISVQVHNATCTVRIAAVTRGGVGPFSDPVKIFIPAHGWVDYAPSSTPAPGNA
Put plainly: FACS blocking: binding of human MerTK-mouse Fc to Jurkat cells overexpressing human Gas6, MFI (AF488). The method, then:
(§1) To evaluate the blocking effects of anti-hMerTK mAbs on hMerTK binding to its ligand hGas6, a receptor blocking assay was set-up. Briefly, Jurkat cells engineered to overexpress human Gas6 were added to the 96-well microplates at a density of 5×10⁴ cells per well. Human MerTK-mouse Fe fusion protein (50 μL/well, […]) and the MerTK chimeric antibodies with a 3-fold serial dilution starting from 120 nM at a volume of 50 μL were added to the 96-well plates and incubated at 4° C. for 30 mins. After washing with FACS buffer, the plates were incubated with diluted Alex Fluor 488 conjugated goat anti-mouse IgG antibody for 30 mins at 4′C. After washing, the plates were analyzed by QuantAnalyzer 16.

The target in experiment [3] is T2, Human MerTK-mouse Fc fusion protein. Described as above. The method, then: as §1
The source holds these as a separate data set.

Experiment [4] deals with T3, human MerTK expressed on cells (human, UniProt Q12866 21-999).
T3 construct: whole, on cells; also called CHO-K1-hMerTK; CHO-K1-MerTK
T3 sequence (looked up): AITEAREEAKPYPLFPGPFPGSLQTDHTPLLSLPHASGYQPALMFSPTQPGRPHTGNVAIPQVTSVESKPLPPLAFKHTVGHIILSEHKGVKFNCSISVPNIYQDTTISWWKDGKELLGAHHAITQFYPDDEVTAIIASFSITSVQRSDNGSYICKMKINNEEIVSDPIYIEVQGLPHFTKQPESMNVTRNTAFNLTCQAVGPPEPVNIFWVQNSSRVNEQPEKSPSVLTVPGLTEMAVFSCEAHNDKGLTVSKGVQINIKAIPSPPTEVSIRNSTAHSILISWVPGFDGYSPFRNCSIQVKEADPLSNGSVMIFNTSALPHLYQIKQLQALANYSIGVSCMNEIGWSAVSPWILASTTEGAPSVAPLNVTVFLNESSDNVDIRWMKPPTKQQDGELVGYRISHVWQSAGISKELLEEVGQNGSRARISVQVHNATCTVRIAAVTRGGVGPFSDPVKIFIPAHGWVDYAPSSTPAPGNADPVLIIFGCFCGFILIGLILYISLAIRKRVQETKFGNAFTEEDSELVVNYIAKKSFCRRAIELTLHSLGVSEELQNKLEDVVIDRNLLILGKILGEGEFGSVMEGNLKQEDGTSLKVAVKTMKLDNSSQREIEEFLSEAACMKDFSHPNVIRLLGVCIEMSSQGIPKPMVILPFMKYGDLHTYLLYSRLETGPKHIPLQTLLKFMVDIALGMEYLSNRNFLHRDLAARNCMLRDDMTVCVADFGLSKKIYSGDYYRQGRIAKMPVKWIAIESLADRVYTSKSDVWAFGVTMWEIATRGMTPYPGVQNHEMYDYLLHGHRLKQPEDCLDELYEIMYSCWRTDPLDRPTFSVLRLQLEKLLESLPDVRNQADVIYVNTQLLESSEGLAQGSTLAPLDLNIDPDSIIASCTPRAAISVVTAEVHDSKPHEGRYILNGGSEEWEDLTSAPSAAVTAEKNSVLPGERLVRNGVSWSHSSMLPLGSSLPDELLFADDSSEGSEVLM
Put plainly: FACS on SK-MEL-5 cells expressing human MerTK, geometric mean. The method, then: To evaluate the binding properties on MerTK expressed on cells, the chimeric monoclonal antibodies were analyzed for their binding to human melanoma cell line SK-MEL-5 expressing MerTK by FACS analysis. Briefly, SK-MEL-5 cells were firstly incubated with 5-fold serially diluted chimeric mAbs starting at 20 nM at 4° C. for 30 mins. After washing by FACS buffer, the PE conjugated anti-human IgG secondary antibody was incubated with the cell-antibody complex in the wells at 4° C. for 30 mins to detect the antibodies those bound to the cells. The MFI of PE was evaluated by QuantAnalyzer 16.

Where two headings read alike, the source gives them in different places.

B1: 252C12B10 chimeric monoclonal antibody (antibody, V domains shown)
VH: QVQLQQPGTELVKPGASVKLSCKTSGYTFTSYWMHWMKQRPGQGLEWLGHINPSTGGSNYNEKFKSKATLTVDKSSNTAYMQLSSLTSEDSAVYYCARPRGFYGYSYWYFDVWGSGTTVTVSS
VL: DIQMTQTTSSLSASLGDRVTISCSASQDINNYLNWYQHKPDGTIKVLIYFTSSLHSGVPSRFSGSGSGTEYSLTISNLEPEDIATYYCQQYSKLPPTFGSGTKLEIK
As a reminder, the Kd is the concentration at which binding is half-saturated. The low end stands for tighter binding, the high end for weaker binding. In general, koff refers to the rate constant with which the complex falls apart. Higher therefore signals a short-lived complex. One may read the kon as the rate constant with which the complex forms. A low value points to slower complex formation. In general, IC50 refers to the point on the concentration scale where inhibition reaches its midpoint. Higher therefore signals a need for much substance. In experiment [1], B1 displayed a Kd of 5.33 nM, a koff of 0.00103 s⁻¹ and a kon of 193000 M⁻¹ s⁻¹. The molecule further came in with an IC50 in experiment [2] of 0.78 nM.

B2: h13B4.v16 benchmark antibody (antibody, V domains shown)
VH: EVQLVESGEGLVQPGGSLRLSCAASGFSLSSYAMGWVRQAPGKGLEYVGIINSYGNTYYANWAKGRFTISRDNSKNTVYLQMGSLRAEDMAVYYCARDPGVSSNLWGRGTLVTVSS
VL: DIQMTQSPSTLSASVGDRVTITCQASQNIYSGLAWYQQKPGKAPKLLIYGASKLASGVPSRFSGSGSGTEFTLTISSLQPDDFATYYCQATYYSSNSVAFGGGTKVEIK
As a reminder, the EC50 is the concentration needed to bring the measured effect to its halfway point. A high value points to a need for much substance. In the case of B2, the IC50 in experiment [3] was 0.836 nM. In experiment [4], this molecule had an EC50 of 0.12 nM and a Top of 4530 Geometric Mean. The molecule also showed an IC50 in experiment [2] of 0.856 nM.

B3: 247E5A8 chimeric monoclonal antibody (antibody, V domains shown)
VH: DVQLQESGPGLVKPSQSLSLTCSVTGYSITGGYYWTWIRQFPGNKLEWMGYISYDGDNNYNPSLKNRISITRDTSKNQFFLNLNSVTTEDTATYYCAREGGRLRTMDYWGQGTSVTVSS
VL: QIVLTQSPAIMSASPGEKVTITCRASSSVNYMHWFQQKPGTSPKLWIYTTSNLASGVPARFSGSGSGTSYSLTISRMEAEDAATYYCQQRSSYPFTFGSGTKLEIK
In experiment [1], B3 gave a Kd of 4.59 nM, a koff of 0.000596 s⁻¹ and a kon of 130000 M⁻¹ s⁻¹. The molecule also showed an IC50 in experiment [2] of 0.787 nM.

B4: 252H9D5 chimeric monoclonal antibody (antibody, V domains shown)
VH: QVTLRESGPGILQPSQTLSLTCSFSGFSLNTFGMGVGWIRQSSGKGLKWLAHIWWDDDKFYNPALKSRLTISKDTSKNQVFLKIANVDTTDTATYYCARIEGGLPYYYDYWGQGTPLIVSS
VL: DIVMTQSQKIMSTSVGDRISVTCKASQIVGTNVVWYQQKPGQSPKALIYSTSYRYSGVPDRFTGSRSGTDFTLTISNVQSEDLANYFCQQYNSYPFTFGSGTKLEIK
In experiment [1], B4 had a dissociation constant Kd of 9.85 nM, a koff of 0.00287 s⁻¹ and a kon of 292000 M⁻¹ s⁻¹. In addition, in experiment [2], the IC50 is 0.824 nM.
